Measured values as given in the supplement of paper PMC7877785.
± gives the uncertainty stated by the source.

Assay: self-splicing fitness, log relative to wild type (ln ratio); higher = more splicing; Tetrahymena group I intron in knt gene, E. coli kanamycin selection, DiMSum; sequences stand for … in CUCUCU…GGAGGGAAAAGUUAUCAGGCAUGCACCUGGUAGCUAGUCUUUAAACCAAUAGAUUGCAUCGGUUUAAAAGGCAAGACCGUCAAAUUGCGGGAAAGGGGUCAACAGCCGUUCAGUACCAAGUCUCAGGGGAAACUUUGAGAUGGCCUUGCAAAGGGUAUGGUAAUAAGCUGACGGACAUGGUCCUAACCACGCAGCCAAGUCCUAAGUCAACAGAUCUUCUGUUGAUAUGGAUGCAGUUCACAGACUAAAUGUCGGUCGGGGAAGAUGUAUUCUUCUCAUAAGAUAUAGUCGGACCUCUCCUUAAUGGGAGCUAGCGGAUGAAGUGAUGCAACACUGGAGCCGCUGGGAACUAAUUUGUAUGCGAAAGUAUAUUGAUUAGUUUUGGAGUACUCGUGGUCG
Summary of the method: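 Pooled colonies went to amplicon sequencing on an Illumina HiSeq 2500 after six replicate transformations. The plates were LB agar with 100 μg/mL carbenicillin, 50 μM IPTG and 0.2% rhamnose, with or without 25 μg/mL kanamycin, incubated overnight at 37°C or 30°C. The E. coli BL21(DE3) library had all eight P1ex-region intron nucleotides randomised, the intron placed in the knt kanamycin-resistance gene on pET-22b(+). DiMSum fitness is the error-weighted combination of replicate fold changes, kanamycin against none, normalised to wild type.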

Sequence | self-splicing fitness (ln) (30 °C) | self-splicing fitness (ln) (37 °C)
UGAUAGCAAUAUUACGAGAU | -3.87 ± 0.43 | -1.92 ± 0.3
UGAUAGCAAUAUUACGAUAG | -0.826 ± 0.28 | -0.505 ± 0.32
UGAUAGCAAUAUUACGCAAU | -2.87 ± 0.49 | -1.62 ± 0.36
UGAUAGCAAUAUUACGCAUU | -2.52 ± 0.17 | -2.11 ± 0.17
UGAUAGCAAUAUUACGCCAU | -2.82 ± 0.26 | -3.2 ± 0.3
UGAUAGCAAUAUUACGCGAG | -1.66 ± 0.17 | -0.803 ± 0.13
UGAUAGCAAUAUUACGCGCA | -0.408 ± 0.091 | 0.2 ± 0.1
UGAUAGCAAUAUUACGCGCU | -0.577 ± 0.11 | -0.36 ± 0.14
UGAUAGCAAUAUUACGGCCC | -2.82 ± 0.48 | -0.72 ± 0.42
UGAUAGCAAUAUUACGGCGU | -2.1 ± 0.18 | -1.22 ± 0.16
UGAUAGCAAUAUUACGGGAC | -4.2 ± 0.31 | -2.54 ± 0.25
UGAUAGCAAUAUUACGGUCA | -0.441 ± 0.073 | -0.29 ± 0.071
UGAUAGCAAUAUUACGGUUU | -2.91 ± 0.097 | -1.38 ± 0.11
UGAUAGCAAUAUUACGUACA | -0.211 ± 0.083 | -0.0617 ± 0.12
UGAUAGCAAUAUUACGUGAU | -3.09 ± 0.11 | -2.43 ± 0.17
UGAUAGCAAUAUUACGUUCC | -1.67 ± 0.24 | -1.1 ± 0.4
UGCAAGCAAUAUUACGAGUC | -2.87 ± 0.15 | -1.83 ± 0.14
UGCAAGCAAUAUUACGAGUU | -1.88 ± 0.084 | -0.67 ± 0.098
UGCAAGCAAUAUUACGCAGG | -4.36 ± 0.33 | -3.48 ± 0.37
UGCAAGCAAUAUUACGCAGU | -3.63 ± 0.3 | -3.35 ± 0.39
UGCAAGCAAUAUUACGCAUG | -3.63 ± 0.21 | -2.32 ± 0.29
UGCAAGCAAUAUUACGCCGG | -2.06 ± 0.13 | -0.615 ± 0.17
UGCAAGCAAUAUUACGCCUC | -1.98 ± 0.46 | -1.23 ± 0.23
UGCAAGCAAUAUUACGCGAA | -2.03 ± 0.1 | -0.581 ± 0.083
UGCAAGCAAUAUUACGCGGC | -2.85 ± 0.17 | -2.3 ± 0.2

Sequence | self-splicing fitness (ln) (30 °C) | self-splicing fitness (ln) (37 °C)
UGCAAGCAAUAUUACGCUGA | -2.78 ± 0.12 | -0.102 ± 0.09
UGCAAGCAAUAUUACGCUGG | -4 ± 0.35 | -3.17 ± 0.24
UGCAAGCAAUAUUACGGACG | -0.345 ± 0.068 | -0.0664 ± 0.087
UGCAAGCAAUAUUACGGCCU | -0.521 ± 0.059 | -0.286 ± 0.079
UGCAAGCAAUAUUACGGCGC | -3.27 ± 0.18 | -2.84 ± 0.31
UGCAAGCAAUAUUACGGCGU | -1.24 ± 0.071 | -0.6 ± 0.091
UGCAAGCAAUAUUACGGUCG | -0.179 ± 0.073 | 0.595 ± 0.088
UGCAAGCAAUAUUACGUACG | -0.89 ± 0.12 | -0.478 ± 0.1
UGCAAGCAAUAUUACGUCAU | -3.29 ± 0.13 | -2.17 ± 0.14
UGCAAGCAAUAUUACGUCCU | -0.656 ± 0.094 | -0.908 ± 0.098
UGCAAGCAAUAUUACGUGAC | -2.65 ± 0.39 | -2.19 ± 0.28
UGCAAGCAAUAUUACGUGGC | -2.62 ± 0.16 | -1.68 ± 0.2
UGCCAGCAAUAUUACGAACG | 0.252 ± 0.055 | 0.281 ± 0.067
UGCCAGCAAUAUUACGAAUC | -4.4 ± 0.46 | –
UGCCAGCAAUAUUACGACCG | -0.712 ± 0.1 | 0.509 ± 0.14
UGCCAGCAAUAUUACGAGGG | -2.61 ± 0.18 | -1.94 ± 0.19
UGCCAGCAAUAUUACGAGGU | -3.06 ± 0.13 | -3.99 ± 0.3
UGCCAGCAAUAUUACGAUCU | -2.48 ± 0.1 | -1.44 ± 0.1
UGCCAGCAAUAUUACGAUGU | -4.66 ± 0.26 | -1.34 ± 0.15
UGCCAGCAAUAUUACGCAAG | -3.07 ± 0.24 | -3.65 ± 0.46
UGCCAGCAAUAUUACGCCCU | -1.49 ± 0.11 | -0.167 ± 0.13
UGCCAGCAAUAUUACGCCGC | -2.25 ± 0.23 | -1.49 ± 0.22
UGCCAGCAAUAUUACGCUGU | -3.59 ± 0.37 | -1.37 ± 0.17
UGCCAGCAAUAUUACGGAGA | -1.47 ± 0.096 | -0.852 ± 0.098
UGCCAGCAAUAUUACGGAGC | -3.73 ± 0.4 | -3.1 ± 0.35

Sequence | self-splicing fitness (ln) (30 °C) | self-splicing fitness (ln) (37 °C)
UGCCAGCAAUAUUACGGAGG | -3.51 ± 0.17 | -1.83 ± 0.17
UGCCAGCAAUAUUACGGCAA | -1.4 ± 0.079 | -1.52 ± 0.085
UGCCAGCAAUAUUACGGCGU | -3.04 ± 0.16 | -3.16 ± 0.27
UGCCAGCAAUAUUACGGUAU | -3.55 ± 0.16 | -2 ± 0.19
UGCCAGCAAUAUUACGGUCU | -0.21 ± 0.059 | 0.456 ± 0.07
UGCCAGCAAUAUUACGUACC | -3.09 ± 0.22 | -1.98 ± 0.21
UGCCAGCAAUAUUACGUAUG | -1.2 ± 0.069 | -0.775 ± 0.095
UGCCAGCAAUAUUACGUCAA | -1.93 ± 0.11 | -1.08 ± 0.093
UGCCAGCAAUAUUACGUCGA | -1.17 ± 0.088 | -0.949 ± 0.11
UGCCAGCAAUAUUACGUGGC | -3.24 ± 0.19 | -3.19 ± 0.25
UGCCAGCAAUAUUACGUGGU | -3.85 ± 0.21 | -2.83 ± 0.19
UGCGAGCAAUAUUACGAAUC | -4.3 ± 0.43 | -2.41 ± 0.23
UGCGAGCAAUAUUACGACCA | -0.371 ± 0.18 | –
UGCGAGCAAUAUUACGACUG | -0.639 ± 0.17 | -0.0696 ± 0.2
UGCGAGCAAUAUUACGAGAU | -2.4 ± 0.33 | -3.21 ± 0.35
UGCGAGCAAUAUUACGAGGA | -3.56 ± 0.18 | -2.75 ± 0.18
UGCGAGCAAUAUUACGAUGU | -3.53 ± 0.13 | -2.97 ± 0.18
UGCGAGCAAUAUUACGAUUG | -2.09 ± 0.1 | -1.35 ± 0.16
UGCGAGCAAUAUUACGCAAU | -3.57 ± 0.18 | -2.72 ± 0.14
UGCGAGCAAUAUUACGCACU | -1.68 ± 0.27 | -1.66 ± 0.24
UGCGAGCAAUAUUACGGACU | – | -1.12 ± 0.34
UGCGAGCAAUAUUACGGAGU | – | -2.08 ± 0.3
UGCGAGCAAUAUUACGGGGC | -3.09 ± 0.27 | –
UGCGAGCAAUAUUACGGUCA | -0.764 ± 0.071 | -0.397 ± 0.077
UGCGAGCAAUAUUACGGUUC | -2.75 ± 0.28 | –

Sequence | self-splicing fitness (ln) (30 °C) | self-splicing fitness (ln) (37 °C)
UGCGAGCAAUAUUACGUCAU | -4.84 ± 0.46 | -2.95 ± 0.23
UGCGAGCAAUAUUACGUCGA | -2.22 ± 0.16 | -1.85 ± 0.2
UGCGAGCAAUAUUACGUCGC | -1.88 ± 0.15 | -2.32 ± 0.23
UGCGAGCAAUAUUACGUGAA | – | -2.32 ± 0.16
UGCGAGCAAUAUUACGUGCG | -2.56 ± 0.27 | -0.202 ± 0.3
UGCGAGCAAUAUUACGUUAU | – | -3.11 ± 0.4
UGCGAGCAAUAUUACGUUGC | – | -1.17 ± 0.33
UGCUAGCAAUAUUACGAAAC | -2.87 ± 0.33 | -2.17 ± 0.31
UGCUAGCAAUAUUACGACAC | -3.83 ± 0.22 | -2.11 ± 0.16
UGCUAGCAAUAUUACGAGCU | -0.987 ± 0.068 | -0.622 ± 0.082
UGCUAGCAAUAUUACGAGUC | -3.43 ± 0.26 | -2.5 ± 0.28
UGCUAGCAAUAUUACGAUUU | -2.4 ± 0.18 | -1.1 ± 0.16
UGCUAGCAAUAUUACGCCUG | -0.427 ± 0.18 | 0.294 ± 0.2
UGCUAGCAAUAUUACGCGUU | -1.7 ± 0.14 | -0.563 ± 0.14
UGCUAGCAAUAUUACGCUAA | -1.85 ± 0.13 | -1.55 ± 0.16
UGCUAGCAAUAUUACGGACC | 0.158 ± 0.22 | -1.06 ± 0.22
UGCUAGCAAUAUUACGGCCA | -0.186 ± 0.11 | -0.178 ± 0.15
UGCUAGCAAUAUUACGGGAU | -3.68 ± 0.19 | -1.76 ± 0.14
UGCUAGCAAUAUUACGGGCU | -2.57 ± 0.13 | -1.89 ± 0.14
UGCUAGCAAUAUUACGGUGG | -1.94 ± 0.066 | -1.33 ± 0.086
UGCUAGCAAUAUUACGUAAA | -1.9 ± 0.094 | -1.6 ± 0.13
UGCUAGCAAUAUUACGUAAG | -2.3 ± 0.19 | -1.35 ± 0.18
UGCUAGCAAUAUUACGUCAC | -3.62 ± 0.19 | -2.74 ± 0.22
